Experimental data from the nanobody polyreactivity screen of Harvey et al. (2022).

Experiment: yeast display, Sf9 membrane polyspecificity reagent, FACS + sequencing; frameworks hold sequencing errors
Outline: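 Using colony PCR, genes from sorted yeast display clones were amplified, then sequenced on MiSeq at 2 × 250 and filtered by CDR length. The clones had been stained with 10% biotinylated, detergent-solubilized Sf9 membrane reagent for 1 hour at 4 °C and sorted by FACS into low and high (top ~1%) gates on anti-HA and streptavidin fluorescence. Polyreactivity labels come from the gate of origin.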

Sequence | polyreactivity (PSR sort gate)
QVQLVESGGGLVQAGGSLRLSCAASGFTFHWYAMGWYRQAPGKERELVAAISSGSSTYYADSVKGRFTISRDNAKNTVYLQMKSLKPEDTAVYYCNVVLYKYSPTESWITYDYWGQGTQVTVSS | low polyreactivity
QVHLVESGGCLVQAGGSLRLSCAASGFTITYNAMGWYRQAPGKEREFVAAITNNGSTYYADSVKGRFTISRDNAMNTVYFQMNSLKPEDTAVYYCAVDPGYYDEYNYWGQGTHVTVSS | low polyreactivity
QVQLQESGGGLVQAGGSLRLRCAASGTISDRAGMGWYRQAPAKNAIVATIDRGTNTNYADSVKGRFTISRDNAKNTVYLQMNSLKPEDTAVYNCAADGRYYIYLDYWGQGTQVTVSS | low polyreactivity
QVQLVESGGGLVQAGGSLRLSCAASGRTFQKNTMGWYRQAPGKERELVAAIDYSATTTYYADSVKGRFTISRDNAKNTVYLQMNSLKTEDTAVYYCAARWSYPRWEFDYWGQGTQVTVSS | high polyreactivity
QLQLVESGGGLVQAGGSLRLSCAASGFTFWGYTIGWYRPAPGKERQLVAGITLSGGSTYYADSVKGRFTISRDNAKNTVYLQMNSLKPEDTAVYYCAAKPYQVSSYDFSLRDYWGQGTQVTVSS | low polyreactivity
QVQLVESGGGLVQAGGSLRLSCAASGFIFRYYTMGWYRQAPGKERELVAAITSGGSTTYADSVKGRFTISRDNAKNTVYFQMNSLKPEDTAVYYCNTAYWYSLYDYWGQGTQVTVSS | high polyreactivity
QVQLEESGGGLVQAGGSLRLSCAASGFTFDVYAMGWYRQAPGKERELVAAIDSGGSTNYADSVKGRFTISRDNAKNTVYLQMNSLKPEDTAVYYCAVRYWKTLSHFSYDYWGQGTQVTVSS | low polyreactivity
QVQLVESGGGLVQAGGSLRLSCAASGATFAQYAMGWYRQAPGKERELVAAISRGGGSTYCADSVKGRFTISRDNAKNTVYLQMNSLKPEDTAVYYCAADPRYRVTLGFDYWGQGSQVTVSS | high polyreactivity
QVQLVESGGGLVQAGGSLRLSCAASGSIFADYAMGWYRQAPGKERELVAVISRRGGTTYYADSVKGRFTISRDNAKNTVYLQMNSLKPEDTAVYYCAARRSFNEYDYWGQGTQVTVSS | high polyreactivity
QVQLVDSGGGLVQAGGSLRLSCAASGFTIPYYAMGWYRQAPGKERELVAAISSGGRTNYADSVKGRFTISRDNAKNTVYLPMNSLKPEDTAVYYCATRSYVFAWEFYYWGQGTQVTVSS | high polyreactivity
QVQLVESRGGLVQAGGSLRLSCAASGRTFTLNAMGWYRQAPGKERELVARIDWRGITYADSVKGRFTISRDNAKNTVYLQMNSLKPEDTAVYYCAADYVQGFGFYYQWHYDYWGQGTQVTVSS | low polyreactivity
QFQLVESGGGLVQAGGSLRLSCAASGSIFANALGWYRQAPRKERELVAAISFSGGRTFYADSVKGRFTISRDNAKNTVYLQMNSLKPDDTTVYYCNKDYWGYFSYWKSYLYDYWGQGTQVTVSS | high polyreactivity
QVQLVESGGGLVQAGGSLRLSCAASGRTFGKYAMGSYTQAPGKETELVAAISSSGGSTYYADSVKGRFTISRDNAKNTVYLQMNSVKPEDTAVYYCGARWSYRDDYWGQGTQVTVSS | high polyreactivity
QVQLQDSGGVMVLACGSLRLSCAESGYISWSFTMGWYRKAPGKEREFVAGITYGGITYYADSVKGRFTISRDNAKNSVYLQMNRLKPEDTAVYYCAAPQSYPYVYVYWGHGTQVTVSS | high polyreactivity
QVQLVESGGGLVQAGGSLRLSCAASGFIFRRYAMGWYRQAPGKERELVAAIRWDDGNTYYADSVKGRFTISRDNAKNTVYLQMNSLKPEDTAVYYCYADKWSSTDDWLYDYWGQGTQVTVSS | low polyreactivity
QVQLVESGGGLVQAGGSLRLSCAASGRIFSWYAMGWYRQAPGKERELVARITSGVSTNYADSVKGRFTISRDNEKNTVYLQMNSLKPEDTAVYDCAADDYSCLYYSSTYRYEYWGQGTQVTVSS | low polyreactivity
QVQLVESGGGLVQAGVSLRLSCAASGFIFWFYAMGWYRQAPGKERELVAAINWSGSYTYYADSVKARFTISRDNAKNTVYLQMNSLKPEDTAVYYCNALFSYGYWRVRYNYWGQGTQVTVSS | high polyreactivity
QVQLEESGGGLVQAGGSLRLSCAASGLISVWYVMGWYRQAPGKERELVAAIRYGGGRTYYADSVKGRFTISRDNAKNTVYLQMNSLKPEDTAVYYCNARPYRGTYGYWGQGTQVTVSS | high polyreactivity
QVQLVESGGGLVQAGGSLRLSCASSGRTVGYNAMGWSRQPPGKEREFVAAITWSGGRTYYADSVKGRFTISRDNAKNTVYLLMNSLKPEDTAVYYCAIDGYWDFDYWGQGTQVSVSS | low polyreactivity
QVQLVESGGGLVQAGGSLRLSCAASGSIFVLNAMGWYRQAPGKERELGAAITNVGSTYYADSVKGRFTISRDNAKNTVYLQMNSLKPEDTAVYYCNAVLAPGGYDYWGQGTQVTVSS | low polyreactivity
QVQLVESCVVLVQAAGSLRLSFAHSGSTFKVYAMGTYRQATGKERELVASISSGGSTNYADSVKGRFTISRDNAKNTVYLQMNSLKPEDTAVYYCALRRYTHRRYRFDYWGQGTQVTVSS | high polyreactivity
QVQLVESGGGLVQAGGSLRLTCAASGSIFRYYAMGWYRQAPGKERELVAAISRSGGSTYYADSVKGRFTISRDNAKNTVYLQMNSLKPEDTAVYYCAAEYRVRSQGYDYWGQGTQVTVSS | high polyreactivity

Sequence | polyreactivity (PSR sort gate)
QVQLVESGGGLVQAGGSLPLSCAASGRIFRRNAKGWYRPAPGKEREMVAAIRYGGGTTYAHSVKGRFTISRDNAKNTVYLQMNSLKPEDTAVYYCAVGPRASFGYGYWGQGTQVTVSS | high polyreactivity
QVQLVESGGGLVQAGGSLRLSCAASGFTFAWYAMGWYRQAPGKERELVAAITSSGGSTYYADSVKGRFTISRDNAKNTVYLQMNSLKPEDTAVYYCAARPWIWARAGYYWGQGTQVTVSS | high polyreactivity
QVQLVESGGGLVQAGGSLRLSCAASGSIFVDYAMGWYRQAPGKERELVAAITSGGRTNYADSVKGRFTISRDNAKNTVYLQMKSLKPEDTAVYYCNKTRYTNYYTTTFDYWGQGTQVTVSS | low polyreactivity
QVHLVESGGRLVQAGGSLRLICAASGRIFFTYAMGWYRQAPGKDRELVASITGSGGSTYYADSVKGSFTISRDNAKNTVYLQMNRLKPEDTAVYYCAAALFRRQLYRKFYYWGQGTQVTVSS | low polyreactivity
QVQLVESGGGLVQAGGSLRLSCAASGSIFRAYAMGWYRQAPGKERELVADISIGDNTYYADSVKGRFTISRDNAKNTVYLQMNSLKPEDTAVYYCAAVSDDVPWYWPQYTILDYWGQGTQVTVSS | high polyreactivity
QVQLVESGGGLVQAGGSLRLSCAASGFIFDGYAMGWYSQAPGKERELVAAIDSGGDRTYYADSVKGRFTISRDNAKNTVYLQMNSLKPEDTAVYYCAADSSDPTGYDYWGQGTQVTVSS | low polyreactivity
QVQLVESGGGLVQAGGSLRLSCAASGRIFLVNAMGWYRQAPGKERELVAAINGSGGSTYYADSVKGRFTISRDNAKNTVYLQMNSLKPEDTAVYYCAAKYVYSVGNYRYDYWGQGTQVTVSS | low polyreactivity
QVQLVESGGGLVQAGGSLRLSCAASGSTFIVYAMGWYRQAPGKERELVAAISLDGGSTYYADSVKGRFTISRDNAKNTVYLQMNSLKPEDSAVYYCNADYYANSITYDSWGQGSQVTVSS | low polyreactivity
QVQLVESGGGIVQAGGSLRVSFAASGLIFYRYAMGWYRQAPGKERELVAAISSAGSTYYADSVKGRFPISRDNAKNTVYLQMNSLKPEDTAVYYCAKKKLLSVPPRGYVYVYYWGQGTQVTVSS | high polyreactivity
QVQLVESGGRLVQAGASLRLSCAASGFTFGGYAMGWYRQPHGKQRELVAAIDSSGGRTYNADSVKGRFTISRDNAKNTVYLQMNSLKPEDTAVYYCNAVYGSDGYDYWGQGTQVTVSS | high polyreactivity
QVQLVESGGCLVQAGGSLRLSCAASGSIFQPYAMGWYRQEPGKEREIVAAISQSGTSTYYADSVNGRFTISRDNAKNTVYLQMNSLKPEVTAVYYCAAQCWHLDSQWQLYNYFYWGQGTQVTVSS | high polyreactivity
QVQLVESGGGLVQAGGSLRLSCAASGIFLVYAMGWYRQAPGKERELVAAIRSDASTNYADSVKWRFTISRDNAKKTVYLQMNILKPEDSAVYYCNTAQLVSDEFDYWGQGTQVTVSS | low polyreactivity
QVQLVESGGGLVQAGGSLRLSCAASGYSFQKYGMGWYRQAPGKERELVAAITRSSGNTYYADSVKGRFTISRDTAKNTVYLQMNSLKPEDTAVYDCAAFYWGGVKYNYWGQGTQVTVSS | high polyreactivity
QVQLVESGGGLVQAGGSLRLSCAASGSTLYYYAMGWYRQAPGKERELVATITNGGSTNYADSVKGRFTISRDNAKNTVYLQMNSLKPEDTAVYYCNARRGYWGSHYWGQGTQVTVSS | high polyreactivity
QVQLVESGGGLVQAGGSLRLSCAASGRIFKAYAMGWYRQAPGKERELVAAITSTGSTYYADSVKGRFTISRDNAKNTVYLQMNSLKPEDTAVYSCARRPSYYQGDYWGQGTQVTVSS | high polyreactivity
QVQLVESGVGLVQAGGSLRLICDASGRIYSYYAIGWYRQAPGKETELVASISRSGGSTYYADSVKGRFTISRDNAKNTVYLQMNSLKPEETAVYYCAAYKYVRSYPYDYWGQGTQVTVSS | low polyreactivity
QVQLVESGGGLVQAGGSLRLSCAASGSTSGKYAMGWYRQAPGKERELVAGITKGGGGTYYADSVKGRFTISRDNAKNTVYLQMNSLKPEDTAVYYCAAGTLYSLYFGRHGYWGQGTQVTVSS | low polyreactivity
QVQLVESGGGLVQAGGSLRLSCAASGSIFYGNTMGWYRQAPGKERELVAAIDYRGDSTYYADSVKGRFTISRDNAKNTVYLQMNSLKPVDTAVYYCAADQTPVGQVYYGTLSIRDYWGQGTQVSVSS | low polyreactivity
QVQLVESGGGLFQEGGSLRLSCAASGFTFLVYAKGWYRQAPGKERQLVAAITWSGDSTYYADSVKGRFTISRDNAKNTVYLQMNSLKPEDTAFYYCAAAYRYGTLYYYWGQGTQVTVSS | low polyreactivity
QVQLVESGGGLVQAGGSLRLSCAASGSIFTNNAMGWYRQAPGKETELVAAISWSGGSTYYADSVKGRFTISRDNAKNTVYLQMNSLKPEDTAVYYCAARRWGGPRYKYNYWGQGTQVTVSS | high polyreactivity
QVQLVESGGGLVQAGGSLRLSCAASGRTFFSYTMGWYRPAPGKERELFAAIYDSDGRTYYADSVKVRFTISRDNAKNTVYLQMYSLKPEDTAVYYCAAVPDKYWSRVRRYLFEHNYWGQGTKVTVSS | low polyreactivity
